Several values for one entry are separate records, joined by “and”; a condition that tells them apart may be missing. Equal entries are not always repeated.

Common to all, as to assay type: binding
The target in assay [1] is T1, human EphA2 (Homo sapiens, UniProt P29317).
T1 construct: a protein of the extracellular region of each human Eph receptor fused with the SEAP protein and the His tag; made in house; host or cells: Expi293F cells (culture supernatant)
In words: Selectivity ELISA of humanized antibodies for human Eph receptor. The note with it: coated protein 1 nM. In short, it runs like this:
(§1)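 Read-out is A450 after TMB development stopped with 1N H2SO4. Plates bore anti-His-captured human Eph extracellular region-SEAP-His proteins at 1 nM final, made in Expi293F cells. Humanized antibody binding ran 1 h at room temperature before HRP-labeled anti-IgG detection.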
Background: An ELISA detects its analyte on a solid surface through an enzyme-linked reagent.

The target in assay [2] is T2, human EphA6 (Homo sapiens, UniProt Q9UF33).
T2 construct: a protein of the extracellular region of each human Eph receptor fused with the SEAP protein and the His tag; made in house; host or cells: Expi293F cells (culture supernatant)
T2 sequence (Q9UF33 23-550 limits assumed): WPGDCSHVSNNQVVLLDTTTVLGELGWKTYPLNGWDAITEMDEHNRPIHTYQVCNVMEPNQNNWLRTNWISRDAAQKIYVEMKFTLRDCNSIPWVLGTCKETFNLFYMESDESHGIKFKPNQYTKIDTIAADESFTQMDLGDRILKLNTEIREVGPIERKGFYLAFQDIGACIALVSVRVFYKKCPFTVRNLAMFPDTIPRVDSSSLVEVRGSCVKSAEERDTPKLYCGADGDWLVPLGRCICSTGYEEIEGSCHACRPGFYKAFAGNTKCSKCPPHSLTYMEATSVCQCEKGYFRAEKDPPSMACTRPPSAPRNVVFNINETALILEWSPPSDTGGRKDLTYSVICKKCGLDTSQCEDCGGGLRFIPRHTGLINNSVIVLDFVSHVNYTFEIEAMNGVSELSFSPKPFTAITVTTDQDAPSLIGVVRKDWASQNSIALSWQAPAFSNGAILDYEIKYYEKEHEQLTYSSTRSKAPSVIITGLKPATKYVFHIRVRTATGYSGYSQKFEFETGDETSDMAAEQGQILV
Described as above. The settings on record: coated protein 1 nM. In short, it runs like this:
as §1

Assay [3] addresses T3, human EphA4 (Homo sapiens, UniProt P54764).
T3 construct: made in house; not restated for the human SEAP-His protein
In words: Affinity of humanized antibodies by SPR (Biacore T200). The note with it: human EphA4 extracellular region-SEAP-His; for ka / kd: 1:1 binding model; for Kd: KD=kd/ka. In short, it runs like this:
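Humanized antibodies captured on protein A chip (antibody A via immobilized rat anti-mouse IgG1) at about 30 to 60 RU in HBS-EP; human EphA4 extracellular region-SEAP-His injected single-cycle at 0.6 to 50 nM, 120 s association, 900 s dissociation. KD = kd/ka from 1:1 binding fits.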
(In general: In SPR one partner is held on a chip, and binding of the other changes the refractive index at the surface.)

T1 sequence (P29317 24-537 limits assumed): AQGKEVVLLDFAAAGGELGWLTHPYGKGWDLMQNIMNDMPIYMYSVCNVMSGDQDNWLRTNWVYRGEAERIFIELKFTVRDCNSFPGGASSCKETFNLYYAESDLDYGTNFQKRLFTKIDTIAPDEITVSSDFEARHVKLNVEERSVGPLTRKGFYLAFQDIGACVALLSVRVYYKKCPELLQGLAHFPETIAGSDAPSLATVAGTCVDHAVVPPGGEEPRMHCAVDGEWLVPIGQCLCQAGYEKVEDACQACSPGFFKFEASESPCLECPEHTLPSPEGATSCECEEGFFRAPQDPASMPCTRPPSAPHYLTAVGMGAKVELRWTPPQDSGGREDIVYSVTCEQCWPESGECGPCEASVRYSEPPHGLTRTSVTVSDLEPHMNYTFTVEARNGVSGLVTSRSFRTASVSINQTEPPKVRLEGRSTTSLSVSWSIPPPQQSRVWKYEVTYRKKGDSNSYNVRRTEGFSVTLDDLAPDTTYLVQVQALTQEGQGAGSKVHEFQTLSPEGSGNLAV
T3 sequence (P54764 20-547): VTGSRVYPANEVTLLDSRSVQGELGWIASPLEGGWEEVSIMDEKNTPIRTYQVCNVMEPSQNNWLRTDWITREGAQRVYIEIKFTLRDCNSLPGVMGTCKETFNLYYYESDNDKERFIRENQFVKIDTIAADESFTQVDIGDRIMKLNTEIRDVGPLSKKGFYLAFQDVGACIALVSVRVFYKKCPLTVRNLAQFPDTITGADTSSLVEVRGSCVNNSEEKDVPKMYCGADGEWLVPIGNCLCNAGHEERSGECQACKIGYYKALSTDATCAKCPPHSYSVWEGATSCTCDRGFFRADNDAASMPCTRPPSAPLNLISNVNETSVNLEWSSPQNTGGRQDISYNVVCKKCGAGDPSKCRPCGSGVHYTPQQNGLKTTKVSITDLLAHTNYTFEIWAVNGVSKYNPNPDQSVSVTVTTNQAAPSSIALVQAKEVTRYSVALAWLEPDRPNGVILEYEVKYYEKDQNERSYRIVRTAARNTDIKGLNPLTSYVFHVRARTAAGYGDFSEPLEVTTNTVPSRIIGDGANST

B1: 153 (antibody, V domains shown)
VH: QVQLVQSGSELKKPGASVKVSCKASGYTFTDYSMHWVRQAPGQGLKWMGWINTETGEPTYAQGFTGRFVFSLDTSVSTAYLQISSLKAEDTAVYYCARIPLYYYGSRYWYFDVWGQGTTVTVSS
VL: DIQMTQSPSSLSASVGDRVTITCRASENIYRNLAWYQQKPGKAPKLLLYAATNLADGVPSRFSGSGSGTDYTLTISSLQSEDFATYYCQHFWGTPWTFGQGTKVEIK
modifications: synthetic humanized antibody heavy chain variable region sequence; synthetic humanized antibody light chain variable region sequence
Take B1: the “hEphA2-SEAP-: absorbance at 450 nm, percentage with respect to hEphA4-SEAP-His as 100%” value in assay [1] was 6.0%. The “hEphA6-SEAP-: absorbance at 450 nm, percentage with respect to hEphA4-SEAP-His as 100%” value in assay [2] is recorded as 8.7%. In assay [3], the ka was determined as 290000 M⁻¹ s⁻¹; the kd is 0.0006 s⁻¹; the Kd – broadly, the equilibrium constant for the complex coming apart – came out at 2.1 nM.

B2: 155 (antibody, V domains shown)
VH: QIQLVQSGSELKKPGASVKVSCKASGYTFTDYSMHWVRQAPGQGLKWMGWINTETGEPTYADDFKGRFVFSLDTSVSTAYLQISSLKAEDTAVYYCARIPLYYYGSRYWYFDVWGQGTTVTVSS
VL: DIQMTQSPSSLSASVGDRVTITCRASENIYRNLAWYQQKPGKAPKLLLYAATNLADGVPSRFSGSGSGTDYTLTISSLQSEDFATYYCQHFWGTPWTFGQGTKVEIK
modifications: synthetic humanized antibody heavy chain variable region sequence; synthetic humanized antibody light chain variable region sequence
Turning to B2, in assay [1], the “hEphA2-SEAP-: absorbance at 450 nm, percentage with respect to hEphA4-SEAP-His as 100%” value was found to be 5.5%. Also, in assay [2], the “hEphA6-SEAP-: absorbance at 450 nm, percentage with respect to hEphA4-SEAP-His as 100%” value was 7.2%. In addition, in assay [3], the ka is 330000 M⁻¹ s⁻¹, the kd turned out to be 0.00064 s⁻¹ and binding was put at a Kd of 1.9 nM.

B3: 151 (antibody, V domains shown)
VH: QIQLVQSGSELKKPGASVKVSCKASGYTFTDYSMHWVRQAPGQGLKWMGWINTETGEPTYAQGFTGRFVFSLDTSVSTAYLQISSLKAEDTAVYYCARIPLYYYGSRYWYFDVWGQGTTVTVSS
VL: DIQMTQSPSSLSASVGDRVTITCRASENIYRNLAWYQQKPGKAPKLLLYAATNLADGVPSRFSGSGSGTDYTLTISSLQSEDFATYYCQHFWGTPWTFGQGTKVEIK
modifications: synthetic humanized antibody heavy chain variable region sequence; synthetic humanized antibody light chain variable region sequence
Consider B3, for which, in assay [1], the “hEphA2-SEAP-: absorbance at 450 nm, percentage with respect to hEphA4-SEAP-His as 100%” value is given as 6.9%. Besides, the “hEphA6-SEAP-: absorbance at 450 nm, percentage with respect to hEphA4-SEAP-His as 100%” value in assay [2] is on record as 9.9%. In assay [3], this molecule displayed a ka of 320000 M⁻¹ s⁻¹, a kd of 0.00053 s⁻¹ and a Kd of 1.7 nM.

B4: 144 (antibody, V domains shown)
VH: QVQLVQSGSELKKPGASVKVSCKASGYTFTDYSMHWVRQAPGQGLEWMGWINTETGEPTYADDFKGRFVFSLDTSVSTAYLQISSLKAEDTAVYYCARIPLYYYGSRYWYFDVWGQGTTVTVSS
VL: DIQMTQSPSSLSASVGDRVTITCRASENIYRNLAWYQQKPGKAPQLLLYAATNLADGVPSRFSGSGSGTDYTLTISSLQPEDFATYYCQHFWGTPWTFGQGTKVEIK
modifications: synthetic humanized antibody heavy chain variable region sequence; synthetic humanized antibody light chain variable region sequence
Turning to B4, the “hEphA2-SEAP-: absorbance at 450 nm, percentage with respect to hEphA4-SEAP-His as 100%” value in assay [1] came to 5.6%. Also, the “hEphA6-SEAP-: absorbance at 450 nm, percentage with respect to hEphA4-SEAP-His as 100%” value in assay [2] was 8.1%. In assay [3], this molecule registered a ka of 400000 M⁻¹ s⁻¹, a kd of 0.00078 s⁻¹ and a Kd of 2 nM.

B5: 154 (antibody, V domains shown)
VH: QVQLVQSGSELKKPGASVKVSCKASGYTFTDYSMHWVRQAPGQGLEWMGWINTETGEPTYADDFKGRFVFSLDTSVSTAYLQISSLKAEDTAVYYCARIPLYYYGSRYWYFDVWGQGTTVTVSS
VL: DIQMTQSPSSLSASVGDRVTITCRASENIYRNLAWYQQKPGKAPKLLLYAATNLADGVPSRFSGSGSGTDYTLTISSLQSEDFATYYCQHFWGTPWTFGQGTKVEIK
modifications: synthetic humanized antibody heavy chain variable region sequence; synthetic humanized antibody light chain variable region sequence
With B5, in assay [1], the “hEphA2-SEAP-: absorbance at 450 nm, percentage with respect to hEphA4-SEAP-His as 100%” value stood at 6.2%. For the same molecule, in assay [2], the “hEphA6-SEAP-: absorbance at 450 nm, percentage with respect to hEphA4-SEAP-His as 100%” value stood at 8.4%. For the same molecule, in assay [3], the ka came out at 390000 M⁻¹ s⁻¹, the kd stood at 0.00065 s⁻¹ and binding was put at a Kd of 2.2 nM.

B6: 145 (antibody, V domains shown)
VH: QVQLVQSGSELKKPGASVKVSCKASGYTFTDYSMHWVRQAPGQGLKWMGWINTETGEPTYADDFKGRFVFSLDTSVSTAYLQISSLKAEDTAVYYCARIPLYYYGSRYWYFDVWGQGTTVTVSS
VL: DIQMTQSPSSLSASVGDRVTITCRASENIYRNLAWYQQKPGKAPKLLLYAATNLADGVPSRFSGSGSGTDYTLTISSLQSEDFATYYCQHFWGTPWTFGQGTKVEIK
modifications: synthetic humanized antibody heavy chain variable region sequence; synthetic humanized antibody light chain variable region sequence
Take B6: the “hEphA2-SEAP-: absorbance at 450 nm, percentage with respect to hEphA4-SEAP-His as 100%” value in assay [1] was determined as 6.5%. Besides, in assay [2], the “hEphA6-SEAP-: absorbance at 450 nm, percentage with respect to hEphA4-SEAP-His as 100%” value amounted to 8.6%. Besides, in assay [3], the ka was determined as 330000 M⁻¹ s⁻¹, the kd turned out to be 0.00065 s⁻¹ and binding was put at a Kd of 2 nM.

B7: 158 (antibody, V domains shown)
VH: QVQLVQSGSELKKPGASVKVSCKASGYTFTDYSMHWVRQAPGQGLKWMGWINTETGEPTYAQGFTGRFVFSLDTSVSTAYLQISSLKAEDTAVYYCARIPLYYYGSRYWYFDVWGQGTTVTVSS
VL: DIQMTQSPSSLSASVGDRVTITCRASENIYRNLAWYQQKPGKAPQLLLYAATNLADGVPSRFSGSGSGTDYTLTISSLQPEDFATYYCQHFWGTPWTFGQGTKVEIK
modifications: synthetic humanized antibody heavy chain variable region sequence; synthetic humanized antibody light chain variable region sequence
As to B7, in assay [1], the “hEphA2-SEAP-: absorbance at 450 nm, percentage with respect to hEphA4-SEAP-His as 100%” value amounted to 6.7%. Moreover, the “hEphA6-SEAP-: absorbance at 450 nm, percentage with respect to hEphA4-SEAP-His as 100%” value in assay [2] came to 10.0%. In assay [3], the ka was 310000 M⁻¹ s⁻¹; the kd was 0.00061 s⁻¹ and 0.00056 s⁻¹; the Kd is 1.9 nM and 1.6 nM.

B8: 157 (antibody, V domains shown)
VH: QVQLVQSGSELKKPGASVKVSCKASGYTFTDYSMHWVRQAPGQGLEWMGWINTETGEPTYAQGFTGRFVFSLDTSVSTAYLQISSLKAEDTAVYYCARIPLYYYGSRYWYFDVWGQGTTVTVSS
VL: DIQMTQSPSSLSASVGDRVTITCRASENIYRNLAWYQQKPGKAPQLLLYAATNLADGVPSRFSGSGSGTDYTLTISSLQPEDFATYYCQHFWGTPWTFGQGTKVEIK
modifications: synthetic humanized antibody heavy chain variable region sequence; synthetic humanized antibody light chain variable region sequence
Consider B8, for which, in assay [1], the “hEphA2-SEAP-: absorbance at 450 nm, percentage with respect to hEphA4-SEAP-His as 100%” value is listed as 6.3%. Also, in assay [2], the “hEphA6-SEAP-: absorbance at 450 nm, percentage with respect to hEphA4-SEAP-His as 100%” value is 9.0%. In assay [3], this molecule gave a ka of 350000 M⁻¹ s⁻¹, a kd of 0.00068 s⁻¹ and a Kd of 2 nM.

(Values after patent US10428140B2, “Anti-EphA4 antibody” (EISAI R&D MANAGEMENT CO., LTD., priority 2015, dated 2019).)
